US20230111237A1 (CARLSBERG A S, published 2023)
Positions count from the first letter of the chain named. In names and notes the source's numbering stands.

Target: T1, recombinant wild type Hordeum vulgare limit dextrinase (wt HvLD) (Hordeum vulgare)
T1 chain: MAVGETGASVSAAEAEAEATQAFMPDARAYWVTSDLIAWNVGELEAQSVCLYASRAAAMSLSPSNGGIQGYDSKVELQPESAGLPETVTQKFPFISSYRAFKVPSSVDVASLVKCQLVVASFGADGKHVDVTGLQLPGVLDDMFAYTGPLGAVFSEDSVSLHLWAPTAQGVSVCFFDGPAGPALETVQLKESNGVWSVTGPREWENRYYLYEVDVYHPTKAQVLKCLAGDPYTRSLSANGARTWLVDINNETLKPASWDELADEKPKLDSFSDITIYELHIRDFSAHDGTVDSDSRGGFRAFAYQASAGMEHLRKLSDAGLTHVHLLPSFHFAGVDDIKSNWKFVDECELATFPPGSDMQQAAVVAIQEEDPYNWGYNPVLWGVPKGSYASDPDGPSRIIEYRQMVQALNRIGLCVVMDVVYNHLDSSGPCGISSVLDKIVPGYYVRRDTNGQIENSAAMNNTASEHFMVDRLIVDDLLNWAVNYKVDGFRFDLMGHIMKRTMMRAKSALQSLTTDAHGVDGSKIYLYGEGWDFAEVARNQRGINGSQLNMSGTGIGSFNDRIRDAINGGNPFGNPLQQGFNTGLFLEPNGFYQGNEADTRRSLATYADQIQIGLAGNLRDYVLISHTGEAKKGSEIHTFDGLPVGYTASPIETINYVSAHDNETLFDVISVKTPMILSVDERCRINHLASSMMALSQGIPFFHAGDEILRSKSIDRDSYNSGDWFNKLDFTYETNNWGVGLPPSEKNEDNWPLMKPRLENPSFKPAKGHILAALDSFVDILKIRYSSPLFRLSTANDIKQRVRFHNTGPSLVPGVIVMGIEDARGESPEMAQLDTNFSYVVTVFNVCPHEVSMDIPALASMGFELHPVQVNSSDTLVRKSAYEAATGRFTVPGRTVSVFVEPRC
Experiment: cell-based or functional assay

B1: wild type Hordeum vulgare limit dextrinase inhibitor (wt HvLDI), recombinant (other)
chain: TLESVKDECQPGVDFPHNPLATCHTYVIKRVCGRGPSRPMLVKERCCRELAAVPDHCRCEALRILMDGVRTPEGRVVEGRLGDRRDCPREEQRAFAATLVTAAECNLSSVQEPGVRLVLLADG
- IC50 (µM) of inhibition of HvLD activity (PullG6 assay, 1.5 µM HvLD): 1.56 µM

B2: HvLDI mutant P60L, recombinant (other)
chain: B1 chain with P36L
- IC50 (µM) of inhibition of HvLD activity (PullG6 assay, 1.5 µM HvLD): 13.2 µM

B3: HvLDI mutant P60S, recombinant (other)
chain: B1 chain with P36S
- IC50 (µM) of inhibition of HvLD activity (PullG6 assay, 1.5 µM HvLD): 10.1 µM

B4: HvLDI mutant V66M, recombinant (other)
chain: B1 chain with V42M
- IC50 (µM) of inhibition of HvLD activity (PullG6 assay, 1.5 µM HvLD): 15.3 µM

B5: HvLDI mutant E68K, recombinant (other)
chain: B1 chain with E44K
- IC50 (µM) of inhibition of HvLD activity (PullG6 assay, 1.5 µM HvLD): 7.1 µM
